According to publication PMC7801609, “Isolation of MERS-related coronavirus from lesser bamboo bats that uses DPP4 and infects human-DPP4-transgenic mice” (Nature Communications, 2021):

B1: MERS-RBD fused to a C-terminal His-tag (domain or fragment)
chain: EAKPSGSVVEQAEGVECDFSPLLSGTPPQVYNFKRLVFTNCNYNLTKLLSLFSVNDFTCSQISPAAIASNCYSSLILDYFSYPLSMKSDLSVSSAGPISQFNYKQSFSNPTCLILATVPHNLTTITKPLKYSYINKCSRFLSDDRTEVPQLVNANQYSPCVSIVPSTVWEDGDYYRKQLSPLEGGGWLVASGSTVAMTEQLQMGFGITVQYGTDTNSVCPKLEFANDTKIASQLGNCVEY

Experiments:
Assay in all cases: SPR; BIAcore X100, CM5 chip, 25 °C; […]; HBS-P+ buffer ([…]
[1] = target: HKU4-RBD fused to a C-terminal His-tag (Tylonycteris-bat-CoV-HKU4) (UniProt A3EX94)
[2] = target: MERS-RBD fused to a C-terminal His-tag (MERS-CoV) (UniProt K9N5Q8)
[3] = target: peptidase domain of hDPP4 (residues 39-766) fused to a C-terminal His-tag (human, UniProt P27487 39-766); conditions: both partners purified
peptidase domain of hDPP4 (residues 39-766) fused to a C-terminal His-tag (human, UniProt P27487 39-766), sequence (P27487 39-766): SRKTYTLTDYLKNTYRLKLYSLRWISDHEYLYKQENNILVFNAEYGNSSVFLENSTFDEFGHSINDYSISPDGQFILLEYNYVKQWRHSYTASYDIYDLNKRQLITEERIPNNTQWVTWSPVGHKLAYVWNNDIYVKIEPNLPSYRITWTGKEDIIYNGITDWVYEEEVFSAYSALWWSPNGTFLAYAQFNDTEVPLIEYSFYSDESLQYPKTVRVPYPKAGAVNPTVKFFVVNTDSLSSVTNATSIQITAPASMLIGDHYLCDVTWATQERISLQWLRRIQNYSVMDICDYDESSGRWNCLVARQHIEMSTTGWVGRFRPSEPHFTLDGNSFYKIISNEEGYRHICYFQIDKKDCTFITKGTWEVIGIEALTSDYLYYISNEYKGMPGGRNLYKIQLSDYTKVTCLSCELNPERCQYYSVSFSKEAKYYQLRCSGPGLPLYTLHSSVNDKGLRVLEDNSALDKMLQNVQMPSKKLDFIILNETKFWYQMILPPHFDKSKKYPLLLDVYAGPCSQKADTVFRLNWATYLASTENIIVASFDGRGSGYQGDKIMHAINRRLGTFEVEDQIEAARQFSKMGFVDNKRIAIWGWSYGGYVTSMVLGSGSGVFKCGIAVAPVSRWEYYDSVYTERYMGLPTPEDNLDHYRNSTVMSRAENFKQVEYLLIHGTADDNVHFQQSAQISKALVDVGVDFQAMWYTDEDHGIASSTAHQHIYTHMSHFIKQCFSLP

Molecule	Kd [1] [nM]	Kd [2] [nM]	Kd [3] [nM]
peptidase domain of TpDPP4 (residues 37-764) fused to a C-terminal His-tag (domain or fragment)	2580	–	–
peptidase domain of dcDPP4 (residues 39-765) fused to a C-terminal His-tag (domain or fragment)	> 47700	> 18700	–
peptidase domain of hDPP4 (residues 39-766) fused to a C-terminal His-tag (from UniProt P27487 39-766) (domain or fragment)	1100	–	–
B1	–	–	632
